Source: patent US10105454B2, “Ultrashort peptides as exogenous second harmonic probes for bioimaging applications” (Agency for Science, Technology and Research, priority 2014, dated 2018)
“And” between values parts separate entries of the source, which are not always exact repeats. Equal values may be shown once. No end group written: not given here.

Tests used:
[1] = at 12 mM, ref [18]; cited from earlier work
[2] = system: primary human dermal fibroblasts (HDF); experiment: Calcein AM/EthD-1 live/dead staining, HDF cells; assay type: cell-based; conditions: 48 h, 1 and 1000 μg/mL
Experimental: (§1) (b) Cytotoxicity determined by Calcein AM/EthD-1 (live/dead, green/red) staining method after 48 h treated with 1 and 1000 μg/mL LK6 peptide solutions using non-treated cells as control.
(§2) In order to use LK6 for bioimaging applications, such as monitoring cells and in vivo imaging, we assessed the cytotoxicity of LK6 by the MTS test. The MTS test was applied to two human cell lines, HeLa and primary human dermal fibroblasts (HDF). The toxicity of LK6 was measured at 0.1, 1, 10, 100 and 1000 μg/mL. Cells were exposed to cell culture media containing LK6 solution for 48 h. […] Calcein AM can penetrate cell membrane and be converted to cell membrane impermeable green fluorescent calcein, while red fluorescent EthD-1 is excluded by the intact cell membrane of live cells.
(§3) In order to use LK6 for bioimaging applications, such as in vitro monitoring cells and in vivo imaging the whole animal, we assessed the cytotoxicity of LK6 by the MTS test and live/dead assay with two human cell lines, human epithelial carcinoma cells (HeLa) and primary human dermal fibroblasts (HDF).

[3] = system: HeLa cells; experiment: MTS cytotoxicity test, HeLa cells; assay type: cell-based, human; conditions: 48 h, 0.1 to 1000 μg/mL
Experimental: as §2
(§4) We cultured both HeLa and human dermal fibroblasts in DMEM supplemented with 10% fetal bovine serum and 1% penicillin/streptomycin (Life technologies, Singapore).
as §3

[4] = Powder SHG efficiency (Kurtz and Perry powder technique, sucrose standard); assay type: physicochemical; conditions: relative to sucrose; average ± standard deviation
Description: (§5) We acquired SHG images using a commercial laser scanning microscopic imaging system (Zeiss LSM 510 META, Jena, Germany) coupled to a mode-locked femtosecond Ti: sapphire laser (Mai-Tai broadband, Spectra-Physics), tunable from 710 nm to 990 nm. To achieve spectral analysis and detect the SHG signal, we used the META detector with 32-gated photon counting module.
All these peptides are SHG-active. We used a powder technique developed by Kurtz and Perry to evaluate the SHG efficiency of these second-order nonlinear optical materials. Sucrose, having a relatively modest nonlinearity, was chosen as a standard to evaluate second harmonic generation efficiencies. […] The efficiency of LD6 and IK3 were even three times higher than that of sucrose. These may due to their molecular structures. LD6 is known to form hydrogel at much lower concentrations compared to LK6. The trimer IK3 has larger dipole moment compared to LK6. […] This agrees with the previous findings. In Table 1, all the tested amyloid-like peptides were SHG-active with some showing even higher SHG efficiency than collagen subtypes. This provides a broad spectrum of materials as second harmonic probes.

[5] = SHG imaging and spectral analysis of peptide particles; assay type: physicochemical
Description: as §5
To test whether the amyloid-like peptides of the present invention are SHG-active, we first investigated a hexamer peptide, Ac-LIVAGK-NH2, (LK6) (SEQ ID NO: 27). Peptide particles deposited on a glass microscope slide were examined under an SHG imaging system. Instrument details can be found in our previous work. During the whole experiments, only the backscattered geometry was employed because it is the only suitable configuration for in vivo imaging. We chose collagen I as a control. For more than a decade it has been shown that SHG microscopy can visualize supramolecular assembly of collagen in tissues. […] The fine structures of collagen and peptide particles can be clearly seen under SHG and scanning electron microscopy (SEM, FIG. 1a insert, 1b and 1c).
We further characterized LK6 peptide. […] When excited at 810 nm, LK6 emitted a sharp SHG peak at 405 nm (FIG. 2a). We then examined the excitation wavelength tunability of SHG signals from LK6 peptide. In FIG. 2b, as the excitation wavelength was increased from 810 to 890 nm, the wavelength of the SHG signals from the LK6 peptide particles increased from 405 to 445 nm respectively. Biological samples, such as cells and tissues, are known to have auto-fluorescence. With excitation wavelength tunability, we can better avoid auto-fluorescence. In addition, we can further increase penetration depth in tissues by simply increasing excitation wavelength. […] The band width (full width at half-maximum of Gaussian distribution, FWHM) was narrow (˜10 nm) and it obeys a relationship to the corresponding wavelength profile of the fundamental beam (˜15 nm). Moreover, we measured the dependence of the output signal on irradiation intensity by varying the 850 nm excitation intensity. […] (1)

[6] = system: HeLa cells; experiment: Calcein AM/EthD-1 live/dead staining, HeLa cells; assay type: cell-based, human; conditions: 48 h, 1 and 1000 μg/mL
Experimental: as §1, §2, §3

[7] = system: primary human dermal fibroblasts (HDF); experiment: MTS cytotoxicity test, human dermal fibroblasts; assay type: cell-based; conditions: 48 h, 0.1 to 1000 μg/mL
Experimental: as §2, §4, §3

[8] = Hyper Rayleigh Scattering, ref [19]; cited from earlier work

Row | Substance | Hydrogel formation [1] | Powder SHG efficiency I^2ω/I^2ω(sucrose) [4] | also measured
1 | Ac-LIVAGK-NH2 [LK6, Ac-LIVAGK-NH2] | self-assembled into hydrogels | 0.95 ± 0.19 | Cytotoxicity by live/dead staining [2]: no toxicity; Cell viability (MTS) [3]: either equivalent to or even higher than that of untreated cells; SHG peak emission wavelength ([5]; excitation 810 nm): 405 nm; SHG band width (FWHM of Gaussian distribution) ([5]; excitation 850 nm): ~10 nm; SHG emission maximum (Gaussian fit) ([5]; excitation 850 nm): 425 nm; SHG signal wavelength ([5]; excitation 890 nm): 445 nm and 450 nm; Cytotoxicity by live/dead staining [6]: no toxicity; Cell viability (MTS) [7]: either equivalent to or even higher than that of untreated cells
2 | GGG | – | – | First hyperpolarizability β [8]: about 0.087 ×10-30 esu
3 | Type I: human collagen subtype I, control and endogenous SHG probe | – | 1.23 ± 0.36 | First hyperpolarizability β [8]: 1250±20 ×10-30 esu
4 | Type II: human collagen subtype II | – | 0.41 ± 0.13 | –
5 | ILVAGS (Ac-ILVAGS) [IS6, designed synthetic hexamer, neutral, acetylated at the N terminus] | self-assembled into hydrogels | 1.96 ± 0.58 | –
6 | LIVAGD (Ac-LIVAGD) [LD6, designed synthetic hexamer, negatively charged, acetylated at the N terminus] | self-assembled into hydrogels | 3.06 ± 0.65 | –
7 | GGVVIA (listed as Homo sapiens) [GA6] | self-assembled into hydrogels | 1.52 ± 0.43 | –
8 | IVK [IK3] | self-assembled into hydrogels | 3.31 ± 0.57 | –
9 | DFNKF (listed as Homo sapiens) [DF5] | self-assembled into hydrogels | 0.89 ± 0.33 | –
10 | KLVFFAE (listed as Homo sapiens) [KE7] | self-assembled into hydrogels | 3.18 ± 0.67 | –
11 | PPG | – | – | First hyperpolarizability β [8]: about 0.087 ×10-30 esu
12 | NFGAIL (listed as Homo sapiens) [NL6] | self-assembled into hydrogels | 0.76 ± 0.21 | –
